According to the supplement of paper PMC9732359:
± gives the uncertainty stated by the source.

Test: protein stability index of a GFP-peptide fusion (yeast GPS) (PSI 1-4); higher = more stable; sorted into four equal gates, so the index is relative within each strain
Method in brief: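 Yeast carrying a pooled library were grown to mid-log phase in leucine-free medium. Each library plasmid expresses Cherry and has a tiled 17-residue yeast protein peptide fused downstream of GFP. Cells were sorted into four equal gates by GFP/Cherry ratio, and plasmids from each gate were PCR-amplified, Illumina-sequenced and assigned to strains by barcode. Summing, across gates, the read frequency times the gate number gave each peptide's protein stability index.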

| Sequence | protein stability index (doa10∆) | protein stability index (pdr5∆) | protein stability index (san1∆) | protein stability index (ubr1∆) |
| --- | --- | --- | --- | --- |
| ESRSFSPIPFPPLTYKN [PRP8] | 3.04 ± 0.074 | 3 ± 0.08 | 2.6 ± 0.058 | 2.62 ± 0.047 |
| LEDEKMKFQESLKKVDE [SMC4] | – | 2.08 ± 0.26 | – | – |
| MRILSNDITNLQLSKTP [SRB8] | 2.59 ± 0.058 | 2.71 ± 0.08 | 2.92 ± 0.052 | 2.8 ± 0.046 |
| NDVTRRTVKNILVSVLP [CSL4] | 2.89 ± 0.12 | 3.12 ± 0.1 | 3.11 ± 0.08 | 3.09 ± 0.11 |
| ITNTDETITTKRVPNPN [SWP82] | 3.09 ± 0.077 | 3.25 ± 0.098 | 3.13 ± 0.078 | 3.21 ± 0.082 |
| KSYYLNTVMLQGIFKNS [AAR2] | 1.34 ± 0.069 | 1.26 ± 0.076 | 2.14 ± 0.14 | 1.24 ± 0.054 |
| QRTCLMTVTFLILAGQV [YCS4] | 1.19 ± 0.052 | 1.36 ± 0.05 | 1.27 ± 0.099 | 1.43 ± 0.043 |
| VVDHHVENELLQVDVDI [RRP42] | 3.4 ± 0.13 | 3.25 ± 0.21 | 2.83 ± 0.17 | – |
| KRSFSSTLKSFFTNPNK [YOR098C/NUP1] | 2.39 ± 0.039 | 2.31 ± 0.04 | 2.32 ± 0.052 | 2.28 ± 0.033 |
| IKKPTSAVVSSNASRRK [RPN4] | 2.47 ± 0.17 | 2.3 ± 0.17 | 2.36 ± 0.076 | 2.89 ± 0.27 |
| GIKATNGVVIATEKKSS [PRE8] | 2.91 ± 0.18 | 2.89 ± 0.17 | 2.52 ± 0.26 | 3.09 ± 0.11 |
| FGSADDTYPYLTGEWST [FAS1] | 2.32 ± 0.067 | 1.32 ± 0.047 | 1.21 ± 0.086 | 1.28 ± 0.072 |
| GESTVESEKLVTPEDVM [RPC82] | 3.15 ± 0.09 | 3.25 ± 0.12 | 3.15 ± 0.11 | – |
| QQRIVSAYEASMVYSNV [RRP4] | 2.32 ± 0.062 | 2.62 ± 0.05 | 2.62 ± 0.045 | 2.33 ± 0.046 |
| RLNTVTRVHQLMLEDAV [MCD1] | 3.32 ± 0.21 | 1.62 ± 0.06 | 1.69 ± 0.21 | 2.32 ± 0.095 |
| KVTQMTPAPKISYKKGA [RPL36B] | 3.12 ± 0.13 | 3.27 ± 0.11 | 3.31 ± 0.061 | 3.21 ± 0.1 |
| LNNLPYKNEDVTALLEQ [YCS4] | 2.9 ± 0.058 | 3.09 ± 0.05 | 3.05 ± 0.047 | 2.99 ± 0.056 |
| LRASFNKLSSILQNEHD [SRB4] | 2.1 ± 0.1 | 2.22 ± 0.069 | 1.52 ± 0.14 | 2.49 ± 0.053 |
| TLVNKSTGLKNASDALK [RPS1B] | 2.87 ± 0.11 | 3.2 ± 0.11 | 3.4 ± 0.092 | 3.24 ± 0.075 |
| NKDMIKNLVKVLESRVN [CSN12] | 2.32 ± 0.23 | 2.63 ± 0.15 | 1.58 ± 0.18 | 1.75 ± 0.15 |
| TNLGQPHSLATKTTGKC [RPS2] | 2.44 ± 0.13 | 2.69 ± 0.13 | 2.38 ± 0.088 | 2.5 ± 0.11 |
| SGNLPLNELSAKDKEIY [RPN13] | 3.21 ± 0.074 | 3.32 ± 0.083 | 3.27 ± 0.044 | 3.19 ± 0.067 |
| LLGIFDDIFIPQNMLFE [RPC25] | 2.33 ± 0.15 | 2.7 ± 0.17 | 2.52 ± 0.095 | 2.69 ± 0.1 |
| EDVVAISSRTYGQRAVL [RPS0B] | 3.28 ± 0.12 | 3.03 ± 0.06 | 3.01 ± 0.087 | 3.1 ± 0.049 |
| LNFKDDKKYKGLTTVWL [REC8] | 2.71 ± 0.064 | 2.77 ± 0.14 | 2.64 ± 0.13 | 2.69 ± 0.066 |
| TQNSRHYMVHEALNLLK [LIN1] | 3.03 ± 0.086 | 2.98 ± 0.075 | 2.76 ± 0.077 | 3.07 ± 0.064 |
| EAIDGNGEIKGENIDAD [SNF2] | 3.53 ± 0.14 | 3.4 ± 0.071 | 3.48 ± 0.078 | 3.25 ± 0.12 |

| Sequence | protein stability index (doa10∆) | protein stability index (pdr5∆) | protein stability index (san1∆) | protein stability index (ubr1∆) |
| --- | --- | --- | --- | --- |
| PYAIVKGKARLGTLVNQ [RPL8A] | 2.54 ± 0.1 | 2.81 ± 0.093 | 2.74 ± 0.16 | 2.73 ± 0.073 |
| FTNVPLNLEQVTLNKYC [YJL039C/NUP192] | 1.99 ± 0.047 | 1.99 ± 0.045 | 1.92 ± 0.077 | 2.14 ± 0.045 |
| EQRKQKLSKILPRYQEL [SMC3] | 3.22 ± 0.12 | 3.1 ± 0.1 | 3.01 ± 0.096 | 3.12 ± 0.1 |
| NLRLLNSIDSTSRIELE [ECM29] | 2.91 ± 0.094 | 3.08 ± 0.077 | 2.92 ± 0.064 | 2.98 ± 0.057 |
| VRAVNTGMEPGKTSFFQ [RPP0] | 2.58 ± 0.16 | 2.78 ± 0.15 | 2.8 ± 0.18 | 2.42 ± 0.25 |
| LFGENDTSTQAYEEEEE [NUT1] | 3.34 ± 0.09 | 3.41 ± 0.095 | 3.5 ± 0.057 | 3.34 ± 0.075 |
| KSSWRQEWLANLKLISV [SIR4] | 1.71 ± 0.057 | 1.45 ± 0.042 | 1.64 ± 0.16 | 1.46 ± 0.045 |
| AVAGLTADAEILINTAR [PRE9] | 2.98 ± 0.11 | 3.02 ± 0.088 | 3.07 ± 0.1 | 3.09 ± 0.078 |
| TQGGNVNLDNTAVGKAA [RPT5] | 3.11 ± 0.053 | 3.28 ± 0.052 | 3.277 ± 0.032 | 3.17 ± 0.038 |
| LPSEDSRAQILQIHSRK [RPT5] | 2.21 ± 0.072 | 2.39 ± 0.049 | 2.55 ± 0.064 | 2.89 ± 0.04 |
| GLVNHRVGVKLKFNSTE [SMX3] | 2.48 ± 0.052 | 2.24 ± 0.04 | 1.94 ± 0.056 | 1.48 ± 0.036 |
| SDDKTRQLSPHTLMSFA [PRE1] | 1.83 ± 0.046 | 2.12 ± 0.05 | 2.26 ± 0.082 | 2.18 ± 0.038 |
| AARDNKKTRIIPRHLQL [HTA1] | 3.04 ± 0.18 | 3.38 ± 0.11 | 3.37 ± 0.13 | 3.15 ± 0.19 |
| IASDGSECIVSIKSKVV [RRP42] | 3.1 ± 0.081 | 3.12 ± 0.075 | 2.7 ± 0.2 | 3.12 ± 0.19 |
| FKIWHGEINKICMESLF [PCI8] | 1.83 ± 0.1 | 1.46 ± 0.056 | 1.42 ± 0.1 | 1.87 ± 0.058 |
| KGQGPFTLTYDIIETFS [YMR129W/POM152] | 1.95 ± 0.045 | 2.31 ± 0.064 | 2.02 ± 0.057 | 2.48 ± 0.044 |
| NGKLTSANERLFGNRPS [YML031W/NDC1] | 2.72 ± 0.11 | 3.03 ± 0.076 | 2.69 ± 0.094 | 2.94 ± 0.066 |
| DRSKLKKGVRVTLDITT [RPT4] | – | 2.87 ± 0.2 | 2.4 ± 0.089 | 2.57 ± 0.14 |
| VGRLWDQTFPINCNKET [ECM29] | 3.03 ± 0.14 | 2.87 ± 0.12 | 3.07 ± 0.11 | 3.09 ± 0.1 |
| KDIRSTLASLIRYNSVE [RPC82] | 2.67 ± 0.14 | 2.13 ± 0.086 | 2.67 ± 0.12 | 2.45 ± 0.11 |
| PPLTYKNDTKILVLALE [PRP8] | 2.58 ± 0.057 | 2.48 ± 0.043 | 2.52 ± 0.055 | 2.04 ± 0.029 |
| PRRYGKGSRQCRVCSSH [RPS29A] | 2.81 ± 0.055 | 3.01 ± 0.043 | 2.92 ± 0.042 | 2.91 ± 0.038 |
| DEKEKQLAVANEIIRSL [SIR4] | 2.3 ± 0.048 | 2.25 ± 0.047 | 2.31 ± 0.069 | 1.91 ± 0.047 |
| KEAAAIAEGKSKQDASP [RPL8B] | 2.96 ± 0.1 | 3.35 ± 0.083 | 2.99 ± 0.068 | 3.06 ± 0.062 |
| QREEAKKVVKKAFEERH [RPL27A] | – | 3.78 ± 0.2 | 2.63 ± 0.29 | – |
| IERDSLVDDENEPSQSL [BRN1] | 3.27 ± 0.12 | 3.41 ± 0.12 | 3.18 ± 0.082 | 3.2 ± 0.077 |
